Reference: article PMC11791182, “Molecular mechanism targeting condensin for chromosome condensation” (The EMBO Journal, 2024)
Each block holds one binder with its values, some of them ahead of it.

What was measured:
Conditions in all cases: both partners purified
[1] = biological target: T1, Ycg1 (6–932, Δ499–555)-Brn1 (384–529) (S. cerevisiae, UniProt Q06680 6-932; P38170 384-529, Δ499–555); test: co-IP; two purified recombinant proteins with anti-GFP-coupled dynabeads (GFP-Sgo1 variants held), 2.5 h; 25 mM HEPES pH 7.5, 500 mM NaCl, 10% glycerol, 1 mM DTT, 0.1% NP-40; silver-stained SDS-PAGE
T1 construct: Ycg1, condensin HAWK subunit, S. cerevisiae, residues 6-932 with 499-555 deleted; Brn1, condensin kleisin subunit, S. cerevisiae, residues 384-529; Construct was a gift of Christian Haering (Kschonsak et al, 2017); also called Ycg1-Brn1; source: E. coli, purified (as described previously, Kschonsak et al, 2017)
T1 sequence (looked up) 1: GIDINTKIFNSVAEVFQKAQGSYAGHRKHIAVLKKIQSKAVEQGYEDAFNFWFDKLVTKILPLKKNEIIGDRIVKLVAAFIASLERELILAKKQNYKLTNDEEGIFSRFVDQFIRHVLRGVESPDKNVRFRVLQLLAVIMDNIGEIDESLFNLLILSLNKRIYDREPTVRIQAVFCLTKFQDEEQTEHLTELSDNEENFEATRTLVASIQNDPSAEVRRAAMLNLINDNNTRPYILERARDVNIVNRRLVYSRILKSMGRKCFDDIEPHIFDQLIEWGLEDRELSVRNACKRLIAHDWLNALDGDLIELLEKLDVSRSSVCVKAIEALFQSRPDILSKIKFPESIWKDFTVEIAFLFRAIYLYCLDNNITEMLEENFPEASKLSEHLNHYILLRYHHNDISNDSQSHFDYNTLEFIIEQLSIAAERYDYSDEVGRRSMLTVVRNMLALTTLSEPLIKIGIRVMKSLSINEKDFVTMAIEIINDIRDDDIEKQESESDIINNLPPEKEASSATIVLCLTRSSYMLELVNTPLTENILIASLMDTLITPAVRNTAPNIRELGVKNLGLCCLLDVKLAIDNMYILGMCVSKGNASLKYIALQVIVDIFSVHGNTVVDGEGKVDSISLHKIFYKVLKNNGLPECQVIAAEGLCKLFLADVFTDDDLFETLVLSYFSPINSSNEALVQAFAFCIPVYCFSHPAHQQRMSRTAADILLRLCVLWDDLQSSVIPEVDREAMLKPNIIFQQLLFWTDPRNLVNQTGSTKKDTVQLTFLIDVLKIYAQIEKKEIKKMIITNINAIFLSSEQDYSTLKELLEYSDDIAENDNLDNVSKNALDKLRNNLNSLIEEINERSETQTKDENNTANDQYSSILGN
T1 sequence (looked up) 2: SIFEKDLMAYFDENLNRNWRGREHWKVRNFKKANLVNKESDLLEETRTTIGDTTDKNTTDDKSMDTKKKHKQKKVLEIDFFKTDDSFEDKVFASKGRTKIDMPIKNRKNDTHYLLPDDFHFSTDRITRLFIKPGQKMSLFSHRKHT

[2] = biological target: T1, Ycg1 (6–932, Δ499–555)-Brn1 (384–529); test: SEC; Sgo1 (350–590) with Ycg1 (6–932, Δ499–555)-Brn1 (384–529); Superdex200 10/300 24 ml column; 10 mM Tris-HCl pH 7.5, 250 mM NaCl, 5% glycerol, 0.001% Tween-20
[3] = biological target: T2, pentameric condensin holo-complex (S. cerevisiae, UniProt P38989 1-1170; Q12267 1-1418; P38170 1-754; Q06680 1-1035; Q06156 1-1176); test: co-IP; two purified recombinant proteins with anti-V5-coupled dynabeads (V5-Sgo1 held), 2.5 h; 25 mM HEPES pH 7.5, 500 mM NaCl, 10% glycerol, 1 mM DTT, 0.1% NP-40; silver-stained SDS-PAGE and immunoblot
T2 construct: Smc2, condensin subunit, S. cerevisiae; Smc4, condensin subunit, S. cerevisiae; Brn1, condensin kleisin subunit, S. cerevisiae; Ycg1, condensin HAWK subunit, S. cerevisiae; Ycs4, condensin HAWK subunit, S. cerevisiae; Constructs were a gift (St-Pierre et al, 2009); also called Sc condensin complex; condensin (Brn1-6HA); source: purified from yeast (as described previously, Kschonsak et al, 2017); …

binding result [1]: binds
B1: GFP-Sgo1 (350–590) (domain or fragment, S. cerevisiae, UniProt Q08490 350-590, looked up)
chain: EVMPVSNMSSNSEISFTRTRRTRGKAVDYTLPSLRAKMRRPSEKLVDATTVIDIHDLQVSKRNRETSHKRKSLSQDSIPDEPQLREVVVSKDYGTPKGKKTEDEIHEDTAHLMTTSNNNSNNKNEKKLTSNNSPKKSSPLLDITNKSENKKKSTRTKKLFKNAIVNNLSDENSTTRPSKSSKGTSNNNNNYNNFDNNNSNINNVNNKSVSFRLNEDDLAVFDLFGNGKAVKHQPKTYRTKK
notes: Sgo1 (shugoshin), S. cerevisiae, residues 350-590; also called C-terminal region of Sgo1 (residues 350–590); C-Sgo1

binding result [2]: binds
binding result [3]: binds
B2: V5-Sgo1 (350–590) (domain or fragment, S. cerevisiae, UniProt Q08490 350-590, looked up)
chain: B1 chain
notes: Sgo1 (shugoshin), S. cerevisiae, residues 350-590; also called recombinant C-terminal region of Sgo1 (350–590); source: protease-deficient yeast strain (AM8184), galactose induced, purified (Ni2+ IMAC, Superose 6 gel filtration)

binding result [1]: binds
B3: GFP-Sgo1 (472-530) (domain or fragment, S. cerevisiae, UniProt Q08490 472-530, looked up)
chain: KNEKKLTSNNSPKKSSPLLDITNKSENKKKSTRTKKLFKNAIVNNLSDENSTTRPSKSS
notes: Sgo1 (shugoshin), S. cerevisiae, residues 472-530; also called Recombinant Sgo1 (472-530), wild type; source: E. coli BL21(DE3), purified (Ni-NTA resin, dialysis)

binding result [3]: binds
B4: V5-Sgo1 (FL) (natural protein, S. cerevisiae, UniProt Q08490 1-590, looked up)
chain: MPKRKIAPNKESSRRTVSHDDLTPQIQEFQNLMDLESQKVENIRQSYSRQNSLLAKDNSILKIKVNSLEKKISQLVQENVTLRSKTSISEAIYRERLSNQLQVIENGIIQRFDEIFYMFENVRKNENLPSSSLRTMLKRTSSRSRSCSLSSPTYSKSYTRLSNHENNLSHESSFNKDDGPDLEPKAKKRKSSRRQSMFVSTSLEPEDETGENEPMMENSSVEVPAESHESAQVEETIDALNPEEENSDSVSNFTNSIIEYSIPEENPTEPEHSSSKLEIFNDSTNMLSTVPSNPLPLPLPGPSATLPTTTSDASTVYPSSSSSTNSHPKTKIKHSMKPPRIELKKKVIDEVMPVSNMSSNSEISFTRTRRTRGKAVDYTLPSLRAKMRRPSEKLVDATTVIDIHDLQVSKRNRETSHKRKSLSQDSIPDEPQLREVVVSKDYGTPKGKKTEDEIHEDTAHLMTTSNNNSNNKNEKKLTSNNSPKKSSPLLDITNKSENKKKSTRTKKLFKNAIVNNLSDENSTTRPSKSSKGTSNNNNNYNNFDNNNSNINNVNNKSVSFRLNEDDLAVFDLFGNGKAVKHQPKTYRTKK
notes: Sgo1 (shugoshin), S. cerevisiae, full length; also called full-length V5-Sgo1; Sc Sgo1; source: protease-deficient yeast strain (AM8184), purified (Ni2+ IMAC, Superose 6 gel filtration)
